Experiment: yeast display, Sf9 membrane polyspecificity reagent, FACS + sequencing; frameworks hold sequencing errors
Outline: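 Synthetic nanobody libraries on Saccharomyces cerevisiae BJ5465 were galactose-induced for 36–48 hours, stained 1 hour at 4 °C with 10% biotinylated, detergent-solubilized Sf9 membrane reagent and enriched on streptavidin microbeads. FACS then separated cells into low and high (top ~1%) gates by anti-HA (expression) and streptavidin (reagent binding) fluorescence. Genes were colony-PCR amplified, MiSeq 2 × 250 sequenced and CDR-length filtered. A clone's polyreactivity label is that of its gate of origin.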

| Sequence | polyreactivity (PSR sort gate) |
| --- | --- |
| QVQLVESGGGLVQAGGSLRLICAASGITFDGYAMGWYRQAPGKERELVAAISWSGGRTYYADSVKGRFTISRDNAKNTVYLQMNSLKPEDTAVYYCAVYRRGVVYLLTSGVDYWGQGTQVTVSS | high polyreactivity |
| QVQLVESGGGLVQAGGSLRLICAASGITFRRYTMGWYREAPGKERELVATISLSDGNTYYADSVKGRFTISRDNAKYTLYLQMNSLKPEDTAVYYCNARHTWHQTYDYWGQGTIVTVSS | low polyreactivity |
| QVQLVESGGGLVQAGGSLRLICAASGITFSLYVKGRYSQAPGNERELVAAISTSGGSTYYADSVKGRFSLSRDNPKKSVYFQMNSLKPEDTSVYYCAAVYVLSWYVQTYDYWGQGTQVTVSS | low polyreactivity |
| QVQLVESGGGLVQAGGSLRLICAASGITFSTYTMGWYRQAPRKEREFVAAISSRGGSTYYADSVKGRFTISRDNAKNTAYLQMNRLIPEVTAVYYCAAALVAPFDYWVQGTQVTVSS | high polyreactivity |
| QVQLVESGGGLVQAGGSLRLICAASGITLPIYAMGWYRQAPGKERELVATISQRDARTYYADSVKGRFTISRDNAKNTVYLQMNSLKPEDTAVYYCARGYKKSVQRFEYWGQGTQVTVSS | high polyreactivity |
| QVQLVESGGGLVQAGGSLRLICAASGLIFGPYAMGWYRQAPGKEREFVAAITRSDGSTYYADSVKGRFTISRDNAKNTVFLQMNSLNPEDTAVYYCNADAGYVWFGGAYYWPYDYWRQGTQVTVSS | low polyreactivity |
| QVQLVESGGGLVQAGGSLRLICAASGLTFAGYAMGWYRQAPGKERELVAAITYSTGRTYYADSVKGRFTISRDNAKNTVYLQMNSLKPEDTAVYYCAALLRGQDRTMDYWGQGTQVTVSS | high polyreactivity |
| QVQLVESGGGLVQAGGSLRLICAASGLTFFRNAMGWYRQAPGKEREFVAGITSTDGSTYYADSVKGRFTISRDNAKNTVYLQMNSLKPEDTAVYYCAAAYRVRGRTYDSWGQGTQVTVSS | high polyreactivity |
| QVQLVESGGGLVQAGGSLRLICAASGLTFGSNGMGWYRQAPGKERELVAAISRGGSTSYADSVKGRFTISRDNAKNTVYLQMNSLKPEDTAVYYCNASPWGPSYFRTPYYGVRRYNYWGQGTQVTVSS | high polyreactivity |
| QVQLVESGGGLVQAGGSLRLICAASGLTFISYAMGWYRQAPGKERELVAAITYSGGSTYYADSVKGRFTISRDNAKNTVYLQMNSLKPEDTAVYYCAVEIPGLLWYLPTYDYWGQGTQVTVSS | low polyreactivity |
| QVQLVESGGGLVQAGGSLRLICAASGLTFRPNSMGWFRQAPGKERELVAAITWLGGRTYYADSVKGRFTISRDNSKNTVYLQMNSLKPEDTEVYYCSADSPYRGRQCPLNYGGDYWGQGTQVTVSS | high polyreactivity |
| QVQLVESGGGLVQAGGSLRLICAASGLTLYPYAMGWYRQAPGKERELVAAISGAGTRTYYADSVKGRFTISRDNAKNTVYLQMNSLKPEDTAVYYCAAVGFRPYDYWGQGTQLTVSS | high polyreactivity |
| QVQLVESGGGLVQAGGSLRLICAASGNIFHRYAMGWYRQAPGKERELVAAINGGGGSTYYADSVKGRFTISRDNAKNTVYLQMNSLKPEDTAVYSCAAVVQNGVHIYDYWGQGTQVTVSS | high polyreactivity |
| QVQLVESGGGLVQAGGSLRLICAASGNIFSYNAMGWYRQAPGKERELVAAISRRGGSTFYADSVKGRFTISRDKAKNTVYLQMNSLKPEDTAVYYCAASRNRYSYGYWGQGTQVTVSS | high polyreactivity |
| QVQLVESGGGLVQAGGSLRLICAASGNIFVYYALGWYRQAPGKERELVAAITSDVSTYYADSVKGRFTISRDNAKNTVYLQLNSLKPEVTAVYYCATTGYGSYVIYWGQGTQVTVSS | low polyreactivity |
| QVQLVESGGGLVQAGGSLRLICAASGRIFAHYARGWYRQAPGKERELVAAISWRGGRTYYADSVKGRFTISRDNAKNTVYLQMNSLKPEDTAVYYCNAVGYSQGYDYWGQGTQVTVSS | high polyreactivity |
| QVQLVESGGGLVQAGGSLRLICAASGRIFDFYAMGWYRQAPGKDRELVAAITTGDSTYYADSVKGRFTISRDNAKNTVYLQMNSLKPEDTAVYDCAAVGHGGWDGDDYWGQGTQVTVSS | low polyreactivity |
| QVQLVESGGGLVQAGGSLRLICAASGRIFGSYVMGWYRQAPGKERELVAAISFSGDTTYYADSVKGRFTISRDNAKNTVYLQMNSLKPDDTAVYYCAAEFPQGYYAFKYDYWGQGTQVTVSS | high polyreactivity |
| QVQLVESGGGLVQAGGSLRLICAASGRIFKWYVMGWYRQAPGKERELVAAISRSGDSTNYADSVKGRFTISRDNAKNTVYLQMNSLKPEDTAVYYCAVGYRYLKWVDYWGQGTQVTVSS | high polyreactivity |
| QVQLVESGGGLVQAGGSLRLICAASGRIFLGYAMGWYRQAPGKERELVARITLIGGGTNYADSVKGRFTISRDNAKNTVYLQMNSLKPVDTAVYYCAAKSPLRPWWVGAVSGNYWGQGTQVTVSS | low polyreactivity |
| QVQLVESGGGLVQAGGSLRLICAASGRIFLWNAMGWYRQAPGKEREFVATISWNDAISYYADSVKGRFTISRDNAKNSVYLQMNSLKPEDTAVYYCNVDPKIVLSFGYDYWGQGTQVTVSS | low polyreactivity |
| QVQLVESGGGLVQAGGSLRLICAASGRIFPSYTMGWYRQAPGKERELVAGITKSGSSTYYADSVKGRFTISRDNAKNTVYLQMNSLKPEDTAVYYCAAVYGNPSYRYGYWGQGTQVTVSS | high polyreactivity |

| Sequence | polyreactivity (PSR sort gate) |
| --- | --- |
| QVQLVESGGGLVQAGGSLRLICAASGRIFRGNAMGWYRQAPGKERELVATISSDGSTNYADSVKGRFTISRDNAKNSVYLQMNSLKPEDTAVYYCAKGFYTITPHGMDYWGQGTQVTVSS | low polyreactivity |
| QVQLVESGGGLVQAGGSLRLICAASGRIFRQNAMGWYRQEPGKERELVASISSGGNTYYADSVKGRFTISRDNAKNTVYLEMNSLKPEDTAVYYCAAAKQRYYRWWTTPGYDYWGQGTQVTVSS | low polyreactivity |
| QVQLVESGGGLVQAGGSLRLICAASGRIFWGNAMGWYRQAPGKERELVAAINSIGGTTYYADSVKGRFTISRDNAKNTVYLQMNSLKPEDTAVYYCAAQTFVYRKELLSRYEYWGQGTQVTVSS | high polyreactivity |
| QVQLVESGGGLVQAGGSLRLICAASGRIFWYYAMGWYRQAPGKERELVASITSGGRTKYADSVKGRFTISRDNAKNTVYLQMNSLKPEDTAVYYCAARLLIDYHADWWVAYDYWGQGTQVTVSS | low polyreactivity |
| QVQLVESGGGLVQAGGSLRLICAASGRIFYVYAMGWYRQAPGKERELVAAITSGGSTYYADSVKGRFTISRDNAKNTVYLQMNSLKPEDTAVYYCAAYNRGRFRPYRFEYWGQGTQVTVSS | high polyreactivity |
| QVQLVESGGGLVQAGGSLRLICAASGRIIRYYAMGWYRQAPGKERELVAITSSGGRTYYADSVKGRFSISRDNAKNTVYLQMNSLKPEDTAVYYCAVDSHCPGRGERFIRLDYWGQGTQVTVSS | low polyreactivity |
| QVQLVESGGGLVQAGGSLRLICAASGRILKYNAMGWYRQAPGKERELVAAISYRGGSTYYADSVKGRFTISRDTAKYTVYLLMNSLKPEDTAVYYCNAGGGILNGPLFDYWGQGTQVTVSS | low polyreactivity |
| QVQLVESGGGLVQAGGSLRLICAASGRILRYYAMGWYRQAPGKERELVASISRGGSTYYADSVKGRFTISRDNAKNTFYLQMNSLKPEDTAVYYCAKSVTGWRGLWYTPRNYYWGQGTQVTVSS | high polyreactivity |
| QVQLVESGGGLVQAGGSLRLICAASGRILWYYAMGWYRQAPGKERELVAAITSSGRTKYADSVKGRFTISRDNAKNTVYLQMNSLKPEDSAVYYCAARPSQWNYDYRRVYYWGQGTQVTVSS | high polyreactivity |
| QVQLVESGGGLVQAGGSLRLICAASGRNFSGNAMGWYTQAPRKERELVAAISTGGSTNYADSVKGRFTISRDNAKNTVYLHMNSLKQEDTAVYYCAADEWRFPSYAYYYWGQGTQVNVSS | low polyreactivity |
| QVQLVESGGGLVQAGGSLRLICAASGRTFFYYAMGWYRQAPGKEREFVAAISWSAGSTYYADSVKGRFTISRDNAKITVSLQMNSLKPKDTGVYYCAAARPSGGGFDYWGQGTQVTVSS | high polyreactivity |
| QVQLVESGGGLVQAGGSLRLICAASGRTFGGYAMASYRQAPGKERELVAAITYSGSSTYYADSVKGRFTISRDNAKNTVYLQMNSLKPEDTAVYYCAARGRQTWYNYWGQGTQVTVSS | high polyreactivity |
| QVQLVESGGGLVQAGGSLRLICAASGRTFNGYAMGWYRQAPGKERELVAAINASGGRTYYADSVKGRFTISRDNAKNTVYLQMNSLKPEDTAVYYCNARRYHWSVYYYDYWGQGTQVTVSS | high polyreactivity |
| QVQLVESGGGLVQAGGSLRLICAASGRTFQYYAMGWYRQARGKERELVAAISWSGGSTYYADSVKGRFTISRDNAKNTVYLQMNSLKAEDNAVYYFAASFRGQIVGYWGQGTQVTVSS | high polyreactivity |
| QVQLVESGGGLVQAGGSLRLICAASGRTFRFYAKGWYRQAPGKERELVAAITSGGSTTYAYSVKGRFTISRDNAKNTVYLQMNSLKPEDTAVYYCNADRARAYDYWGQGTQVTVSS | high polyreactivity |
| QVQLVESGGGLVQAGGSLRLICAASGRTFRFYTMGWYRQAPGKERELVAGIRQRGGTTYYADSVKGRFTISRDNAKNTVYLQMNSLKPEDTAVYYCAADVYYPFYSPGFDYWGQGTQVTVSS | high polyreactivity |
| QVQLVESGGGLVQAGGSLRLICAASGRTFYLYAMGWYRQAPGKERELVASITKSGGSTYYADSVKGRFTISRDNAKNTVYLQMNSLKPEDTAVYYCATDGRWRLAGAFTGKRRTYDYWGQGTQVTVSS | low polyreactivity |
| QVQLVESGGGLVQAGGSLRLICAASGSIFADYAMGWYRQAPGKERELVAAITGGTSTYYADSVKGRFTISRDNAKNTVYLQMNSLKPEDTAVYYCAAYYYWEFSYYEYDYWGQGSQVTVSS | low polyreactivity |
| QVQLVESGGGLVQAGGSLRLICAASGSIFAYNAMGWYRQAPGKERELVAAITDSAGSTYYADSVKGRFTISRDNAKNTVYLQMYSLKPEDTAVYYGAKYTTRGVYRYWPKDMDYWGQGTQVTVSS | low polyreactivity |
| QVQLVESGGGLVQAGGSLRLICAASGSIFDPYAMGWYRQAPGKERELVAAITYSAARTYYADSVKGRFTISRDNAKNTVYLQMNSLKPEDTAVYYFNRVVRREAERYDYWGQGTQVTVSS | high polyreactivity |
| QVQLVESGGGLVQAGGSLRLICAASGSIFEYYAIRLYRQAPGTERELVADITYDGGNTYYADSLKGRFTISRDNAKNTVYLQMNSLKPEDTAVYYCATEYRYWQSDYSTYFPYDYWGQGTQVTVSS | low polyreactivity |

From the nanobody polyreactivity screen of Harvey et al. (2022)
